Measurements as given in the Human Domainome abundance scans (Beltran et al. 2025).
± gives the uncertainty stated by the source.

B1: Tripartite motif-containing protein 44, residues 174 to 218; numbered along this chain, Q96DX7 (parent)
chain: VAKRKCPDHGLDLSTYCQEDRQLICVLCPVIGAHQGHQLSTLDEA

Variants of: B1
Assay: abundance fitness (aPCA) (normalised: wild type 0, dead -1); higher = more abundant; growth selection in yeast, the domain comes from the species named
Conditions: Homo sapiens
VAKRKCPDHGLDLSTYCQEDRQLIYVLCPVIGAHQGHQLSTLDEA showed an abundance fitness of -0.601 ± 0.12. VAKRKCPDHGLDLSTYCQEDRQLICALCPVIGAHQGHQLSTLDEA showed an abundance fitness of 0.042 ± 0.026. Variant VAKRKCPDHGLDLSTYCQEDRQLICCLCPVIGAHQGHQLSTLDEA has an abundance fitness of 0.002 ± 0.032. Work on VAKRKCPDHGLDLSTYCQEDRQLICDLCPVIGAHQGHQLSTLDEA yielded an abundance fitness of 0.046 ± 0.031. Work on VAKRKCPDHGLDLSTYCQEDRQLICELCPVIGAHQGHQLSTLDEA yielded an abundance fitness of 0.066 ± 0.028. VAKRKCPDHGLDLSTYCQEDRQLICFLCPVIGAHQGHQLSTLDEA showed an abundance fitness of -0.052 ± 0.045. VAKRKCPDHGLDLSTYCQEDRQLICGLCPVIGAHQGHQLSTLDEA showed an abundance fitness of 0.002 ± 0.026. Work on VAKRKCPDHGLDLSTYCQEDRQLICKLCPVIGAHQGHQLSTLDEA yielded an abundance fitness of 0.113 ± 0.033. VAKRKCPDHGLDLSTYCQEDRQLICLLCPVIGAHQGHQLSTLDEA showed an abundance fitness of -0.025 ± 0.027. Variant VAKRKCPDHGLDLSTYCQEDRQLICMLCPVIGAHQGHQLSTLDEA has an abundance fitness of -0.011 ± 0.033. Variant VAKRKCPDHGLDLSTYCQEDRQLICNLCPVIGAHQGHQLSTLDEA has an abundance fitness of 0.062 ± 0.036. In the case of VAKRKCPDHGLDLSTYCQEDRQLICPLCPVIGAHQGHQLSTLDEA, the abundance fitness is reported as 0.029 ± 0.031. VAKRKCPDHGLDLSTYCQEDRQLICQLCPVIGAHQGHQLSTLDEA showed an abundance fitness of 0.074 ± 0.032. For VAKRKCPDHGLDLSTYCQEDRQLICRLCPVIGAHQGHQLSTLDEA, the abundance fitness was 0.082 ± 0.027. For VAKRKCPDHGLDLSTYCQEDRQLICSLCPVIGAHQGHQLSTLDEA, the abundance fitness was 0.084 ± 0.029. Work on VAKRKCPDHGLDLSTYCQEDRQLICTLCPVIGAHQGHQLSTLDEA yielded an abundance fitness of 0.054 ± 0.029. With VAKRKCPDHGLDLSTYCQEDRQLICWLCPVIGAHQGHQLSTLDEA the abundance fitness was -0.065 ± 0.029. In the case of VAKRKCPDHGLDLSTYCQEDRQLICYLCPVIGAHQGHQLSTLDEA, the abundance fitness is reported as -0.041 ± 0.038. In the case of VAKRKCPDHGLDLSTYCQEDRQLICVCCPVIGAHQGHQLSTLDEA, the abundance fitness is reported as -0.283 ± 0.035. Variant VAKRKCPDHGLDLSTYCQEDRQLICVECPVIGAHQGHQLSTLDEA has an abundance fitness of 0.063 ± 0.028. VAKRKCPDHGLDLSTYCQEDRQLICVFCPVIGAHQGHQLSTLDEA showed an abundance fitness of -0.137 ± 0.049. For VAKRKCPDHGLDLSTYCQEDRQLICVGCPVIGAHQGHQLSTLDEA, the abundance fitness was -0.25 ± 0.026. For VAKRKCPDHGLDLSTYCQEDRQLICVHCPVIGAHQGHQLSTLDEA, the abundance fitness was -0.069 ± 0.045. Variant VAKRKCPDHGLDLSTYCQEDRQLICVICPVIGAHQGHQLSTLDEA has an abundance fitness of -0.119 ± 0.055. VAKRKCPDHGLDLSTYCQEDRQLICVMCPVIGAHQGHQLSTLDEA gave an abundance fitness of 0.039 ± 0.032. Work on VAKRKCPDHGLDLSTYCQEDRQLICVNCPVIGAHQGHQLSTLDEA yielded an abundance fitness of 0.055 ± 0.038. For VAKRKCPDHGLDLSTYCQEDRQLICVPCPVIGAHQGHQLSTLDEA, the abundance fitness was -0.624 ± 0.055. In the case of VAKRKCPDHGLDLSTYCQEDRQLICVQCPVIGAHQGHQLSTLDEA, the abundance fitness is reported as 0.127 ± 0.029. VAKRKCPDHGLDLSTYCQEDRQLICVRCPVIGAHQGHQLSTLDEA gave an abundance fitness of 0.024 ± 0.026. For VAKRKCPDHGLDLSTYCQEDRQLICVSCPVIGAHQGHQLSTLDEA, the abundance fitness was -0.024 ± 0.027. For VAKRKCPDHGLDLSTYCQEDRQLICVTCPVIGAHQGHQLSTLDEA, the abundance fitness was -0.212 ± 0.033. VAKRKCPDHGLDLSTYCQEDRQLICVVCPVIGAHQGHQLSTLDEA gave an abundance fitness of -0.151 ± 0.027. In the case of VAKRKCPDHGLDLSTYCQEDRQLICVWCPVIGAHQGHQLSTLDEA, the abundance fitness is reported as -0.216 ± 0.032. With VAKRKCPDHGLDLSTYCQEDRQLICVYCPVIGAHQGHQLSTLDEA the abundance fitness was -0.059 ± 0.044. For VAKRKCPDHGLDLSTYCQEDRQLICVLAPVIGAHQGHQLSTLDEA, the abundance fitness was -0.897 ± 0.043. With VAKRKCPDHGLDLSTYCQEDRQLICVLDPVIGAHQGHQLSTLDEA the abundance fitness was -0.557 ± 0.059. VAKRKCPDHGLDLSTYCQEDRQLICVLEPVIGAHQGHQLSTLDEA gave an abundance fitness of -0.704 ± 0.043. For VAKRKCPDHGLDLSTYCQEDRQLICVLFPVIGAHQGHQLSTLDEA, the abundance fitness was -0.791 ± 0.083. In the case of VAKRKCPDHGLDLSTYCQEDRQLICVLHPVIGAHQGHQLSTLDEA, the abundance fitness is reported as -0.994 ± 0.14. VAKRKCPDHGLDLSTYCQEDRQLICVLIPVIGAHQGHQLSTLDEA showed an abundance fitness of -1.09 ± 0.11. VAKRKCPDHGLDLSTYCQEDRQLICVLKPVIGAHQGHQLSTLDEA gave an abundance fitness of -0.744 ± 0.062. With VAKRKCPDHGLDLSTYCQEDRQLICVLLPVIGAHQGHQLSTLDEA the abundance fitness was -1.12 ± 0.059. Work on VAKRKCPDHGLDLSTYCQEDRQLICVLMPVIGAHQGHQLSTLDEA yielded an abundance fitness of -1.07 ± 0.082. Work on VAKRKCPDHGLDLSTYCQEDRQLICVLNPVIGAHQGHQLSTLDEA yielded an abundance fitness of -0.759 ± 0.083. Variant VAKRKCPDHGLDLSTYCQEDRQLICVLPPVIGAHQGHQLSTLDEA has an abundance fitness of -0.882 ± 0.068. In the case of VAKRKCPDHGLDLSTYCQEDRQLICVLRPVIGAHQGHQLSTLDEA, the abundance fitness is reported as -1 ± 0.043. In the case of VAKRKCPDHGLDLSTYCQEDRQLICVLTPVIGAHQGHQLSTLDEA, the abundance fitness is reported as -0.982 ± 0.066. VAKRKCPDHGLDLSTYCQEDRQLICVLVPVIGAHQGHQLSTLDEA gave an abundance fitness of -1.06 ± 0.051. For VAKRKCPDHGLDLSTYCQEDRQLICVLWPVIGAHQGHQLSTLDEA, the abundance fitness was -1.14 ± 0.076. Variant VAKRKCPDHGLDLSTYCQEDRQLICVLYPVIGAHQGHQLSTLDEA has an abundance fitness of -0.919 ± 0.082. In the case of VAKRKCPDHGLDLSTYCQEDRQLICVLCAVIGAHQGHQLSTLDEA, the abundance fitness is reported as -0.097 ± 0.027. For VAKRKCPDHGLDLSTYCQEDRQLICVLCCVIGAHQGHQLSTLDEA, the abundance fitness was -0.2 ± 0.039. Variant VAKRKCPDHGLDLSTYCQEDRQLICVLCDVIGAHQGHQLSTLDEA has an abundance fitness of -0.077 ± 0.034. For VAKRKCPDHGLDLSTYCQEDRQLICVLCEVIGAHQGHQLSTLDEA, the abundance fitness was -0.031 ± 0.028. Variant VAKRKCPDHGLDLSTYCQEDRQLICVLCFVIGAHQGHQLSTLDEA has an abundance fitness of -0.198 ± 0.047. VAKRKCPDHGLDLSTYCQEDRQLICVLCGVIGAHQGHQLSTLDEA showed an abundance fitness of -0.083 ± 0.026. With VAKRKCPDHGLDLSTYCQEDRQLICVLCHVIGAHQGHQLSTLDEA the abundance fitness was -0.016 ± 0.038.
